Source: paper PMC10357528

Biological target: SARS-CoV-2 receptor-binding domain, wild-type (SARS-CoV-2) (UniProt P0DTC2)
Experiment: AlphaScreen or HTRF

## SARS-CoV-2 receptor-binding domain, wild-type (from UniProt P0DTC2 319-541) (domain or fragment)
  AlphaLISA signal: 29000 CPS
